According to patent US20160017348A1 (University of California, published 2016):

T1: H3K9me1 peptide (UniProt P59226 2-16, monomethyl-lysine at K9)
T1 peptide (looked up): ARTKQTARKSTGGKA

T2: H3(1-15)K9me2 peptide (UniProt P59226 2-16, dimethyl-lysine at K9)
T2 construct: range 2-16; Residues 1-15 are stated for the peptide in the crystal structure; also called H3K9me2 peptide; H3K9me2
T2 peptide (looked up): ARTKQTARKSTGGKA

T3: H3K9me3 peptide (UniProt P59226 2-16, trimethyl-lysine at K9)
T3 peptide (looked up): ARTKQTARKSTGGKA


Tests used:
NRPE1-Flag (Pol V) = molecular target: T4, NRPE1-Flag (Pol V) (Arabidopsis thaliana, UniProt Q5D869 1-1976); assay: immunoprecipitation and mass spectrometry
T4 construct: Bait for the purification of the Pol V complex; also called Flag-tagged Pol V; not shown: Flag tag

H3K9me1 peptide = molecular target: T1, H3K9me1 peptide; assay: ITC; reference is the unmodified H3 peptide
H3(1-15)K9me2 peptide = molecular target: T2, H3(1-15)K9me2 peptide; assay: ITC; reference is the unmodified H3 peptide
H3K9me3 peptide = molecular target: T3, H3K9me3 peptide; assay: ITC; reference is the unmodified H3 peptide

T4 sequence (Q5D869 whole entry): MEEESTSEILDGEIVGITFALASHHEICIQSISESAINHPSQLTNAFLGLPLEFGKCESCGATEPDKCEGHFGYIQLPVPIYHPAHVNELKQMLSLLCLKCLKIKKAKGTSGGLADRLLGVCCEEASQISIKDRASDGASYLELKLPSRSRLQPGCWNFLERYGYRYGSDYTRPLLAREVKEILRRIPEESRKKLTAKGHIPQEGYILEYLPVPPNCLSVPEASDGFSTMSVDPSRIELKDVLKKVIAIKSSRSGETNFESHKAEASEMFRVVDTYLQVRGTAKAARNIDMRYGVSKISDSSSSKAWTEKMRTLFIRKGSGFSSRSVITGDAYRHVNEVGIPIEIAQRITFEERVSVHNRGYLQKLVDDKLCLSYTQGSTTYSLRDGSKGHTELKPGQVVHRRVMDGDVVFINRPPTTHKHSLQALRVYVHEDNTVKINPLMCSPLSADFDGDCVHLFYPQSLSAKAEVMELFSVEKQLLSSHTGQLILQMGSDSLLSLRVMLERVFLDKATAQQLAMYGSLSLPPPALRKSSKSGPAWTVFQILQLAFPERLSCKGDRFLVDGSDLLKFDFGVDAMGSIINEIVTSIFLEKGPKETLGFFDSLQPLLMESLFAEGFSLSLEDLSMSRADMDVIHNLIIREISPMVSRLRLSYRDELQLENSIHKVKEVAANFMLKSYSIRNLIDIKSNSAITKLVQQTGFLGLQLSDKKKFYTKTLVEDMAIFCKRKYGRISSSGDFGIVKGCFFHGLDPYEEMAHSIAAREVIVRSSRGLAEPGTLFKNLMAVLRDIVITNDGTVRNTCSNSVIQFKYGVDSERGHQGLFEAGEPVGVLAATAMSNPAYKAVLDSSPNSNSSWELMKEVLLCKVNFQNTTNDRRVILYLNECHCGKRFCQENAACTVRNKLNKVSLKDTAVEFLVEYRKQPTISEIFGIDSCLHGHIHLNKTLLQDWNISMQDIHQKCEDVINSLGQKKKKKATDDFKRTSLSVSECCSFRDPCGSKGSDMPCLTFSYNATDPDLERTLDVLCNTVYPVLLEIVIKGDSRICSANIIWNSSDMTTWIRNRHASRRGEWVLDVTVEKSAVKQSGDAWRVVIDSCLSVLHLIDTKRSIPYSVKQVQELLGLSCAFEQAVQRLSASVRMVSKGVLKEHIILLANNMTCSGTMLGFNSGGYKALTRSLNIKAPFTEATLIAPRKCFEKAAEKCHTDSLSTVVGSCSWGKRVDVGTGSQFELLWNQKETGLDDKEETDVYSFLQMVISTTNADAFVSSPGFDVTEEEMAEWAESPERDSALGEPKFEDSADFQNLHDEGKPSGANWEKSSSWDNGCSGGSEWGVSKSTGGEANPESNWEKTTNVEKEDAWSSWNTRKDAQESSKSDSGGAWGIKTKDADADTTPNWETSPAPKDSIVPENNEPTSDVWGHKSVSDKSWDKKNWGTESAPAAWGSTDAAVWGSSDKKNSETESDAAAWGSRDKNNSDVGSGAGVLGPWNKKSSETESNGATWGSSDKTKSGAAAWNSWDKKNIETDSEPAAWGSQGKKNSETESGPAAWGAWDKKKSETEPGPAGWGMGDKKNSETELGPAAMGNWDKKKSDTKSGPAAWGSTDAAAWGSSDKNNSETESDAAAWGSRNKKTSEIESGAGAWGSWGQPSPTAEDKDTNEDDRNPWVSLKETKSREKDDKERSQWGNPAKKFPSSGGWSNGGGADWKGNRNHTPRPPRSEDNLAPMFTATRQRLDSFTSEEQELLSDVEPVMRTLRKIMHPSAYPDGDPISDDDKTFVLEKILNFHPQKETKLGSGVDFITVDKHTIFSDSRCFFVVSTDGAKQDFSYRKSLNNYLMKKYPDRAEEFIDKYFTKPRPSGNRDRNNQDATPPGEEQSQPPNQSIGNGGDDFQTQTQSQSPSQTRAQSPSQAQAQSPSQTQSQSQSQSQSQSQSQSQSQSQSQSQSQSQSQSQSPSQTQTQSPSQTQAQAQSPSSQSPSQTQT

Row | binding result (NRPE1-Flag (Pol V)) | fold higher affinity than with unmodified H3 peptides (H3K9me1 peptide) | fold higher affinity than with unmodified H3 peptides (H3(1-15)K9me2 peptide) | fold higher affinity than with unmodified H3 peptides (H3K9me3 peptide) | Binder
1 | no binding | – | – | – | SUVH9 (other, Endogenous protein searched for by mass spectrometry in Pol V purifications; also called SUVH2/9 peptides) MGSSHIPLDPSLNPSPSLIPKLEPVTESTQNLAFQLPNTNPQALISSAVSDFNEATDFSSDYNTVAESARSAFAQRLQRHDDVAVLDSLTGAIVPVEENPEPEPNPYSTSDSSPSVATQRPRPQPRSSELVRITDVGPESERQFREHVRKTRMIYDSLRMFLMMEEAKRNGVGGRRARADGKAGKAGSMMRDCMLWMNRDKRIVGSIPGVQVGDIFFFRFELCVMGLHGHPQSGIDFLTGSLSSNGEPIATSVIVSGGYEDDDDQGDVIMYTGQGGQDRLGRQAEHQRLEGGNLAMERSMYYGIEVRVIRGLKYENEVSSRVYVYDGLFRIVDSWFDVGKSGFGVFKYRLERIEGQAEMGSSVLKFARTLKTNPLSVRPRGYINFDISNGKENVPVYLFNDIDSDQEPLYYEYLAQTSFPPGLFVQQSGNASGCDCVNGCGSGCLCEAKNSGEIAYDYNGTLIRQKPLIHECGSACQCPPSCRNRVTQKGLRNRLEVFRSLETGWGVRSLDVLHAGAFICEYAGVALTREQANILTMNGDTLVYPARFSSARWEDWGDLSQVLADFERPSYPDIPPVDFAMDVSKMRNVACYISHSTDPNVIVQFVLHDHNSLMFPRVMLFAAENIPPMTELSLDYGVVDDWNAKLAICN
2 | no binding | – | – | – | SUVH2 (other, Endogenous protein, detected or searched for by mass spectrometry in immunoprecipitates; also called SUVH2 peptides) MSTLLPFPDLNLMPDSQSSTAGTTAGDTVVTGKLEVKSEPIEEWQTPPSSTSDQSANTDLIAEFIRISELFRSAFKPLQVKGLDGVSVYGLDSGAIVAVPEKENRELIEPPPGFKDNRVSTVVVSPKFERPRELARIAILGHEQRKELRQVMKRTRMTYESLRIHLMAESMKNHVLGQGRRRRSDMAAAYIMRDRGLWLNYDKHIVGPVTGVEVGDIFFYRMELCVLGLHGQTQAGIDCLTAERSATGEPIATSIVVSGGYEDDEDTGDVLVYTGHGGQDHQHKQCDNQRLVGGNLGMERSMHYGIEVRVIRGIKYENSISSKVYVYDGLYKIVDWWFAVGKSGFGVFKFRLVRIEGQPMMGSAVMRFAQTLRNKPSMVRPTGYVSFDLSNKKENVPVFLYNDVDGDQEPRHYEYIAKAVFPPGIFGQGGISRTGCECKLSCTDDCLCARKNGGEFAYDDNGHLLKGKHVVFECGEFCTCGPSCKSRVTQKGLRNRLEVFRSKETGWGVRTLDLIEAGAFICEYAGVVVTRLQAEILSMNGDVMVYPGRFTDQWRNWGDLSQVYPDFVRPNYPSLPPLDFSMDVSRMRNVACYISHSKEPNVMVQFVLHDHNHLMFPRVMLFALENISPLAELSLDYGLADEVNGKLAICN
3 | – | ~17 fold | ~17 fold | ~17 fold | SHH1 SAWADEE domain (residues 125-258) (other) ADLAFEAKSARDYAWYDVSSFLTYRVLRTGELEVRVRFSGFDNRHDEWVNVKTSVRERSIPVEPSECGRVNVGDLLLCFQEREDQALYCDGHVLNIKRGIHDHARCNCVFLVRYELDNTEESLGLERICRRPEE
